Our source for the response values is paper PMC4751435 (2016).

What all share (assay): BRET
Assay [1] has as its target luciferase-FOXP2 (wild-type, full-length 1-715) (UniProt O15409). Particulars: HEK293 cells, n = 3, read off a plot.
A further assay addresses luciferase-FOXP1 (UniProt Q9H334). The following applies: HEK293 cells, n = 3, read off a plot.
The target in assay [2] is luciferase-FOXP2 (wild-type, full-length 1-715) (UniProt O15409). Particulars: HEK293 cells, n = 3, read off a plot. The source holds these as a separate data set.
In assay [3] the target is YFP-SUMO1 alanine mutant (AA), P63165-1. The following applies: HEK293 cells; n = 3; control donor (nuclear-targeted luciferase) est. 0.005; parent: est. 0.15; read off a plot.
The target is the same in assay [4]. Particulars: HEK293 cells; n = 3; control donor (nuclear-targeted luciferase) est. 0.004; parent: est. 0.15; read off a plot.
The target in assay [5] is YFP-SUMO2 alanine mutant (AA), P61956-1. Particulars: HEK293 cells; n = 3; control donor (nuclear-targeted luciferase) est. 0.028; parent: est. 0.20; read off a plot.
The target is the same in assay [6]. The following applies: HEK293 cells; n = 3; control donor (nuclear-targeted luciferase) est. 0.028; parent: est. 0.20; read off a plot. This is another data set of the same source.
In assay [7] the target is YFP-SUMO3 alanine mutant (AA), P55854-2. The following applies: HEK293 cells; n = 3; control donor (nuclear-targeted luciferase) est. 0.034; parent: est. 0.23; read off a plot.
Assay [8] has the same target. The following applies: HEK293 cells; n = 3; control donor (nuclear-targeted luciferase) est. 0.034; parent: est. 0.23; read off a plot. This is another data set of the same source.
The mark [9] stands for this setting: control donor (nuclear-targeted luciferase) est. 0.028, parent: est. 0.20.
Setting [10] is: control donor (nuclear-targeted luciferase) est. 0.034, parent: est. 0.23.

Sequence of YFP-SUMO1 alanine mutant (AA), P63165-1 (P63165 1-97, change not shown): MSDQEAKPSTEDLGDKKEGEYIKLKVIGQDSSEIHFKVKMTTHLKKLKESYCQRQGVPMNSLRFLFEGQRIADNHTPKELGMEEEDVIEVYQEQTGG
Sequence of YFP-SUMO3 alanine mutant (AA), P55854-2 (P55854 other isoform, or with tags, fused parts or gaps, change not shown): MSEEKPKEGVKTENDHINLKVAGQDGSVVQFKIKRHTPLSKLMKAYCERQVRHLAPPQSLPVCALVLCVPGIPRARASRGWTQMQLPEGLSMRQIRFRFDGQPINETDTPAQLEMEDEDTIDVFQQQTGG

Turning to “YFP-SUMO1 (wild-type, GG) (from UniProt P63165-1) AA”, the response in [1] (control donor (nuclear-targeted luciferase) est. 0.004, parent: est. 0.15) is 0.019 BRET ratio; in the assay with luciferase-FOXP1 (control donor (nuclear-targeted luciferase) est. 0.000, parent: est. 0.15), -0.043 BRET ratio; in assay [2] (control donor (nuclear-targeted luciferase) est. 0.000, parent: est. 0.077) it was -0.017 BRET ratio; in [2] (control donor (nuclear-targeted luciferase) est. 0.005, parent: est. 0.15), 0.019 BRET ratio.

“YFP-SUMO2 (wild-type, GG) (from UniProt P61956-1) AA”: the response in assay [1] (setting [9]) was 0.032 BRET ratio; in the assay with luciferase-FOXP1 (control donor (nuclear-targeted luciferase) est. 0.012, parent: est. 0.19), -0.036 BRET ratio; in [2] (control donor (nuclear-targeted luciferase) est. 0.012, parent: est. 0.13), 0.005 BRET ratio; in assay [2] (setting [9]), 0.032 BRET ratio.

As for “YFP-SUMO3 (wild-type, GG) (from UniProt P55854) AA”, the response is 0.065 BRET ratio in assay [1] (setting [10]); -0.035 BRET ratio with luciferase-FOXP1 (control donor (nuclear-targeted luciferase) est. 0.015, parent: est. 0.20); 0.012 BRET ratio in assay [2] (control donor (nuclear-targeted luciferase) est. 0.015, parent: est. 0.15); 0.065 BRET ratio in assay [2] (setting [10]).

As for m1; m10 FOXP2:K674R; SUMO1:AA, in [3], the response amounted to 0.012 BRET ratio.

Take m1; m10 FOXP2:R553H; SUMO1:AA: the response in [4] worked out at 0.008 BRET ratio.

Regarding m1; m11 FOXP2:K674R; SUMO2:AA, the response in [5] stood at 0.021 BRET ratio.

With m1; m11 FOXP2:R553H; SUMO2:AA, the response in [6] was found to be 0.048 BRET ratio.

As for m1; m12 FOXP2:K674R; SUMO3:AA, the response in assay [7] came out at 0.043 BRET ratio.

Turning to m1; m12 FOXP2:R553H; SUMO3:AA, the response in assay [8] came to 0.027 BRET ratio.
